Key:
[1] = molecular target: T1, human neutrophil elastase (HNE) (Homo sapiens, UniProt P08246 30-267); experiment: enzyme inhibition; details: elastin-Congo red, 90% for E6 and E12, ELISA: PBS pH 7.4, 5 mM MgCl2, 10 mM KCl, 0.01% Tween 20, 20 min (temperature not stated), inhibition: 50 mM Tris pH 7.5, 150 mM NaCl, 5 mM MgCl2, 0.
[2] = molecular target: T1, human neutrophil elastase (HNE); experiment: enzyme inhibition; elastin-Congo red, 100 nM HNE; E6/E12 values swapped in a second sentence; ELISA: PBS pH 7.4, 5 mM MgCl2, 10 mM KCl, 0.01% Tween 20, 20 min (temperature not stated); inhibition: 50 mM Tris pH 7.5, 150 mM NaCl, 10 mM KCl, 5 mM MgCl2, 0.02% Tween 20, 37 C; details: protein: commercial, label: biotin (ELISA)
[3] = molecular target: T1, human neutrophil elastase (HNE); experiment: enzyme inhibition; DQ gelatin substrate; competitive; ELISA: PBS pH 7.4, 5 mM MgCl2, 10 mM KCl, 0.01% Tween 20, 20 min (temperature not stated); inhibition: 50 mM Tris pH 7.5, 150 mM NaCl, 10 mM KCl, 5 mM MgCl2, 0.02% Tween 20, 37 C; details: protein: commercial, label: biotin (ELISA)
[4] = molecular target: T1, human neutrophil elastase (HNE); experiment: ELISA; HNE immobilized; ELISA: PBS pH 7.4, 5 mM MgCl2, 10 mM KCl, 0.01% Tween 20, 20 min (temperature not stated); inhibition: 50 mM Tris pH 7.5, 150 mM NaCl, 10 mM KCl, 5 mM MgCl2, 0.02% Tween 20, 37 C; details: protein: commercial; for Kd: label: biotin (ELISA)
[5] = predicted: 1 G4, 3 hairpin loops (not tested)
[6] = predicted: 2 G4, 2 hairpin loops (not tested)

T1 sequence (P08246 30-267): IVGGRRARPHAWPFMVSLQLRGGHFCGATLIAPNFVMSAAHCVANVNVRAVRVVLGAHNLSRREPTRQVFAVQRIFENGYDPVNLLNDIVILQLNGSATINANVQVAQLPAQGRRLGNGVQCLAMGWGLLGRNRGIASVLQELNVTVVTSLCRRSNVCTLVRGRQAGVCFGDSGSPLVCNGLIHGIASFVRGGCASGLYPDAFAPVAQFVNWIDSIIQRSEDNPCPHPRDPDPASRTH

## dsDNA 24-mer
[1]
  binding signal: 10 % inhibition

B1: aptamer E6 (ssDNA)
DNA: CATGCTTCCCCAGGGAGATGAGGACGGGCGTGGGGATGGGTATGGTGCAACTCCCGAGGAACATGCGTCGCAAAC
[2]; [5]
  IC50: 173 nM
[3]; [5]
  Ki: 52 ± 6 nM
[4]; [5]
  Kd: 20.5 nM

B2: aptamer E12 (ssDNA)
DNA: CATGCTTCCCCAGGGAGATGGGCGTGGGGGTTGGGTATGGTGCTTGAGGGGCCTGGAGGAACATGCGTCGCAAAC
[2]; [6]
  IC50: 178 nM
[3]; [6]
  Ki: 22 ± 1 nM
[4]; [6]
  Kd: 13.9 nM

B3: NC nonspecific ssDNA (ssDNA)
DNA: CATGCTTCCCCAGGGAGATGAACCCTTTGGGAAACCCTTTGGGAAACCCTTTGGGGAGGAACATGCGTCGCAAAC
[4]; label: 5' biotin (ELISA)
  binding result: no binding
